Laboratory results published in patent US20250002588A1 (DIAGONAL THERAPEUTICS, published 2025).
Where a chain is given by its changes, count along the chain named.

B1: PRO006 (bispecific antibody)
chain: EVQLLESGGGLVQPGGSLRLSCAASGFTFSDYYMTWIRQAPGKGLEWVSSISGGSTYYADSRKGRFTISRDNSENTLYLQMNSLRAEDTAVYYCARDFGVAGWFGQYGMDVWGQGTLVTVSSGGGGSGGGGSGGGGSQSVLTQPPSASGTPGQRVTISCTGSSSNIGAGYDVHWYQQLPGTAPKLLIYRSNQRPSGVPDRFSGSKSGTSASLAISGLRSEDEADYYCSSYAGNYNLVFGGGTKLTVLDKTHTCPPCPAPEAAGAPSVFLFPPKPKDTLMISRTPEVTCVVVDVSHEDPEVKFNWYVDGVEVHNAKTKPREEQYNSTYRVVSVLTVLHQDWLNGKEYKCKVSNKALPAPIEKTISKAKGQPREPQVYTLPPSRDELTKNQVSLTCLVKGFYPSDIAVEWESNGQPENNYKTTPPVLDSDGSFFLYSKLTVDKSRWQQGNVFSCSVMHEALHNHYTQKSLSLSPGGGGGSGGGGSEVQLLESGGGLVQPGGSLRLSCAASGFTFSSYAMSWVRQAPGKGLEWVANINQDGSEKNYVDSMRGRFTISRDNSKNTLYLQMNSLRAEDTAVYYCAREFDYWGQGTLVTVTSSGGGGSGGGGSGGGGSQSVLAQPPSASGTPGQRVTISCSGSSSNIGSNYVYWYQQLPGTAPKLLIYGNNKRPSGVPDRFSGSKSGTSASLAISGLRSEDEADYYCAAWDDSLNGRVFGGGTKLTVL
B2: DGL893 (bispecific antibody)
chain 1: not shown
chain 2: EVQLLESGGGLVQPGGSLRLSCAASGFTFSDYYMTWIRQAPGKGLEWVSSISGGSTYYADSRKGRFTISRDNSENTLYLQMNSLRAEDTAVYYCARDFGVSGWFGQYGMDVWGQGTLVTVSSGGGGSGGGGSGGGGSQSVLTQPPSASGTPGQRVTISCTGSSSNIGAGYDVHWYQQLPGTAPKLLIYRSNQRPSGVPDRFSGSKSGTSASLAISGLRSEDEADYYCSSYAGNYNLVFGGGTKLTVLDKTHTCPPCPAPEAAGAPSVFLFPPKPKDTLMISRTPEVTCVVVDVSHEDPEVKFNWYVDGVEVHNAKTKPREEQYNSTYRVVSVLTVLHQDWLNGKEYKCKVSNKALPAPIEKTISKAKGQPREPQVCTLPPSRDELTKNQVSLSCAVKGFYPSDIAVEWESNGQPENNYKTTPPVLDSDGSFFLVSKLTVDKSRWQQGNVFSCSVMHEALHNHYTQKSLSLSPGWSHPQFEK
B3: DGL918 (bispecific antibody)
chain 1: not shown
chain 2: B2 chain 2 with Y33W, S55T
B4: DGL910 (bispecific antibody)
chain 1: not shown
chain 2: B2 chain 2 with S55T, S101A
B5: DGL916 (bispecific antibody)
chain 1: not shown
chain 2: B2 chain 2 with Y33W, S101A
B6: DGL895 (bispecific antibody)
chain 1: not shown
chain 2: B2 chain 2 with S55T, S101A
B7: DGL909 (bispecific antibody)
chain 1: not shown
chain 2: B2 chain 2 with Y33W, S101A
B8: DGL903 (bispecific antibody)
chain 1: not shown
chain 2: B2 chain 2 with S55T, S101A
B9: DGL912 (bispecific antibody)
chain 1: not shown
chain 2: B2 chain 2 with T35N, R62V, S101A, Y107F
B10: DGL899 (bispecific antibody)
chain 1: not shown
chain 2: B2 chain 2 with S55T, S101A
B11: DGL894 (bispecific antibody)
chain 1: not shown
chain 2: B2 chain 2 with Y33W, S101A
B12: DGL906 (bispecific antibody)
chain 1: not shown
chain 2: B2 chain 2 with Y32S, T35S, R62V, S101A, W103Y
B13: DGL904 (bispecific antibody)
chain 1: not shown
chain 2: B2 chain 2 with Y33W, S55T
B14: DGL908 (bispecific antibody)
chain 1: not shown
chain 2: B2 chain 2
B15: DGL900 (bispecific antibody)
chain 1: not shown
chain 2: B2 chain 2 with Y33W, S55T
B16: DGL902 (bispecific antibody)
chain 1: not shown
chain 2: B2 chain 2 with Y33W, S101A
B17: DGL913 (bispecific antibody)
chain 1: not shown
chain 2: B2 chain 2 with Y32S, T35S, R62V, S101A, W103Y
B18: DGL914 (bispecific antibody)
chain 1: not shown
chain 2: B2 chain 2 with T35N, R62V, S101A, Q106Y
B19: DGL896 (bispecific antibody)
chain 1: not shown
chain 2: B2 chain 2 with Y33W, S55T
B20: DGL898 (bispecific antibody)
chain 1: not shown
chain 2: B2 chain 2 with Y33W, S101A
B21: DGL901 (bispecific antibody)
chain 1: not shown
chain 2: B2 chain 2
B22: DGL897 (bispecific antibody)
chain 1: not shown
chain 2: B2 chain 2
B23: DGL917 (bispecific antibody)
chain 1: not shown
chain 2: B2 chain 2 with S55T, S101A
B24: DGL905 (bispecific antibody)
chain 1: not shown
chain 2: B2 chain 2 with T35N, R62V, S101A, Y107F
B25: DGL915 (bispecific antibody)
chain 1: not shown
chain 2: B2 chain 2
B26: DGL911 (bispecific antibody)
chain 1: not shown
chain 2: B2 chain 2 with Y33W, S55T
B27: DGL907 (bispecific antibody)
chain 1: not shown
chain 2: B2 chain 2 with T35N, R62V, S101A, Q106Y

The binders below were run against T1, ALK-1/BMPR-2 receptor pair of the PathHunter U2Os dimerization cells (DiscoverX 93-0962C3) (UniProt P37023 22-503; Q13873 27-1038) (assay: cell-based or functional assay).
Target sequence in this assay (P37023 22-503, chain 1 of 2): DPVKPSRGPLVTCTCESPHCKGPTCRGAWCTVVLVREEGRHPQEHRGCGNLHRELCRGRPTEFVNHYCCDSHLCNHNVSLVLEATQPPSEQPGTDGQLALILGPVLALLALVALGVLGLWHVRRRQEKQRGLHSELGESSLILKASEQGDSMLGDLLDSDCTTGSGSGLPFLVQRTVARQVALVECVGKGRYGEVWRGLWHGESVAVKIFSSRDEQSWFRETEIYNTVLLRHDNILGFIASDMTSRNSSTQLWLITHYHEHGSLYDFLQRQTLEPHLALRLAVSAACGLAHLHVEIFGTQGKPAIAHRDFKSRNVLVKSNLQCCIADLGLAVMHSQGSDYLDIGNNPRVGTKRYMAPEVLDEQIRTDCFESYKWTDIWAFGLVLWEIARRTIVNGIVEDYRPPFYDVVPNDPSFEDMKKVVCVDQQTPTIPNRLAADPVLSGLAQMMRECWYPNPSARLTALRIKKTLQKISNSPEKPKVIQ
Target sequence in this assay (Q13873 27-1038, chain 2 of 2): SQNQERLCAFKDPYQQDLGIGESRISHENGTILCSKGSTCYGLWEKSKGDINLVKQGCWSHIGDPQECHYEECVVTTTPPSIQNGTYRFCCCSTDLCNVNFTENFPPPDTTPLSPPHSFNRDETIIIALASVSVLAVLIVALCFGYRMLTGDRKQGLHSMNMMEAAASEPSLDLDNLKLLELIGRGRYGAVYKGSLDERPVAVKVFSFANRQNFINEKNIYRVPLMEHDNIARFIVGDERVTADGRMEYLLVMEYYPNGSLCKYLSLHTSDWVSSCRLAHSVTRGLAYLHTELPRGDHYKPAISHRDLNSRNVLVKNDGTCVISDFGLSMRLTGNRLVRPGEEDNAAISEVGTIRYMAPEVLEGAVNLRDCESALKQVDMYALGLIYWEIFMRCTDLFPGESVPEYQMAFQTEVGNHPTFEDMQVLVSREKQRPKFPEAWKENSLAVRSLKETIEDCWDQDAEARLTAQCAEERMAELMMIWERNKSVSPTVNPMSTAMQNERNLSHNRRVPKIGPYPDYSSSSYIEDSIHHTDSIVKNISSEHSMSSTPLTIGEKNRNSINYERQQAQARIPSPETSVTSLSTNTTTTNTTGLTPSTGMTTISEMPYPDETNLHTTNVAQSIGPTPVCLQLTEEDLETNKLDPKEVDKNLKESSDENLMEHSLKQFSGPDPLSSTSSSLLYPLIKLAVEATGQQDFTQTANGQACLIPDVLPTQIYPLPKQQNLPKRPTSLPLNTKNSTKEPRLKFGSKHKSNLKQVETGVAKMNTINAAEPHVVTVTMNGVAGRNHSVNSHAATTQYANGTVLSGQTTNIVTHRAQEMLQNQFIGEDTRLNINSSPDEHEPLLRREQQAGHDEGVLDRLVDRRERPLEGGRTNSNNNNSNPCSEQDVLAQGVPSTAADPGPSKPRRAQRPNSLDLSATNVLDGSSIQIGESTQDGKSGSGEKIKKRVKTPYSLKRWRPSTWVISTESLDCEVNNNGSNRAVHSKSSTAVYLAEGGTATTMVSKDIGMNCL
B1 was tested, and the “% Emax BMP9” value was 35%, the “EC50” value was 0.1 nM and the “Emax (RLU)” value was 929000 RLU.

Molecular target: T1, ALK-1/BMPR-2 receptor pair of the …
Assay: cell-based or functional assay
Remark: another data set of the same source
For B2, the “% Emax BMP9” value was 20% and the “Emax (RLU)” value was 552000 RLU.
In the case of B3, the “% Emax BMP9” value is reported as 46% and the “Emax (RLU)” value is reported as 1.24e+06 RLU.
In the case of B4, the “% Emax BMP9” value is reported as 49% and the “Emax (RLU)” value is reported as 1.33e+06 RLU.
For B5, the “% Emax BMP9” value was 41% and the “Emax (RLU)” value was 1.11e+06 RLU.
For B6, the “% Emax BMP9” value was 26% and the “Emax (RLU)” value was 715000 RLU.
With B7 the “% Emax BMP9” value was 24% and the “Emax (RLU)” value was 663000 RLU.
B8 was tested, and the “% Emax BMP9” value was 34% and the “Emax (RLU)” value was 918000 RLU.
B9 was tested, and the “% Emax BMP9” value was 33% and the “Emax (RLU)” value was 910000 RLU.
In the case of B10, the “% Emax BMP9” value is reported as 30% and the “Emax (RLU)” value is reported as 812000 RLU.
With B11 the “% Emax BMP9” value was 14% and the “Emax (RLU)” value was 383000 RLU.
B12 was tested, and the “% Emax BMP9” value was -2% and the “Emax (RLU)” value was -41100 RLU.
In the case of B13, the “% Emax BMP9” value is reported as 17% and the “Emax (RLU)” value is reported as 475000 RLU.
For B14, the “% Emax BMP9” value was 45% and the “Emax (RLU)” value was 1.23e+06 RLU.
In the case of B15, the “% Emax BMP9” value is reported as 12% and the “Emax (RLU)” value is reported as 333000 RLU.
In the case of B16, the “% Emax BMP9” value is reported as 19% and the “Emax (RLU)” value is reported as 529000 RLU.
With B17 the “% Emax BMP9” value was 0% and the “Emax (RLU)” value was 8420 RLU.
For B18, the “% Emax BMP9” value was 20% and the “Emax (RLU)” value was 557000 RLU.
For B19, the “% Emax BMP9” value was 10% and the “Emax (RLU)” value was 282000 RLU.
In the case of B20, the “% Emax BMP9” value is reported as 19% and the “Emax (RLU)” value is reported as 509000 RLU.
B21 was tested, and the “% Emax BMP9” value was 29% and the “Emax (RLU)” value was 800000 RLU.
With B22 the “% Emax BMP9” value was 26% and the “Emax (RLU)” value was 701000 RLU.
With B23 the “% Emax BMP9” value was 17% and the “Emax (RLU)” value was 469000 RLU.
In the case of B24, the “% Emax BMP9” value is reported as 36% and the “Emax (RLU)” value is reported as 972000 RLU.
In the case of B25, the “% Emax BMP9” value is reported as 5% and the “Emax (RLU)” value is reported as 124000 RLU.
For B26, the “% Emax BMP9” value was 19% and the “Emax (RLU)” value was 521000 RLU.
For B27, the “% Emax BMP9” value was 12% and the “Emax (RLU)” value was 321000 RLU.
